Where “and” joins values, the source holds several entries; their conditions need not be identical. Equal values may be shown once.
B1: eCIRP: extracellular cold-inducible RNA-binding protein; recombinant murine, produced in our laboratory (protein, UniProt P60824 1-172, looked up)
Cold-inducible RNA-binding …: MASDEGKLFVGGLSFDTNEQALEQVFSKYGQISEVVVVKDRETQRSRGFGFVTFENIDDAKDAMMAMNGKSVDGRQIRVDQAGKSSDNRSRGYRGGSAGGRGFFRGGRSRGRGFSRGGGDRGYGGGRFESRSGGYGGSRDYYASRSQGGSYGYRSSGGSYRDSYDSYATHNE

Tests used:
[1] = tested on: ZBP1; experiment: ZBP1 in pulmonary endothelial cells (CD31) of CLP mice, confocal immunofluorescence; format: in vivo, mouse; details: sepsis, 10 mg/kg NDI, 20 h
Protocol: Sepsis was induced in mice by cecal ligation and puncture (CLP) as described previously ([45], [46]). Mice were anesthetized with isoflurane to a surgical plane and placed in a supine position. CLP was performed through a midline laparotomy. The abdomen was shaved and disinfected. Through a 2 cm midline incision, the cecum was exposed and then ligated with a 4-0 silk suture 1 cm proximal from the distal cecal extremity. For 20-hour CLP experiments, the cecum was punctured twice with a 22-gauge needle. A small amount of cecal content was extruded through both holes, and the ligated cecum was returned to the peritoneal cavity. The wound was closed in layers. For 10-day sepsis survival studies, the cecum was punctured once with a 22-gauge needle. A small amount of cecal content was extruded. Mice were allocated to the vehicle and adoptive transfer of DLL4^+ neutrophils or DLL4^– neutrophils groups. Adoptive transfer mice received a retro-orbital injection of 1 × 10^6 cells per mouse DLL4^+ neutrophils or DLL4^– neutrophils in […] phosphate-buffered saline (PBS) immediately after abdominal closure in both the 20-hour experiments and the survival study. […]
For immunohistochemistry staining, paraffin-embedded lung tissue sections were deparaffinized and dewaxed in xylene and a series of ethanol. […] The images were analyzed with ImageJ Fiji (NIH).

[2] = tested on: DLL4 expression on TLR4^–/– BMDNs; experiment: Frequency of DLL4^+ neutrophils, TLR4^–/– mouse BMDNs, flow cytometry; format: cell-based; details: 12 h
Protocol: Male 8-week-old C57BL/6 mice were purchased from Charles River Laboratories. TLR4^–/– mice were obtained from Kevin Tracey (Feinstein Institutes for Medical Research). Mice were housed at approximately 23°C with a 12-hour light/12-hour dark cycle and given standard laboratory food and water ad libitum. All experiments were performed following the NIH guidelines for experimental animals. The animal protocol was approved by the Feinstein Institutes’ Institutional Animal Care and Use Committee. Animals were randomly assigned to the sham, vehicle, or adoptive transfer groups.
Mice were anesthetized by 2% isoflurane inhalation, and the femora and tibiae were dissected. […] The purity of the sorted neutrophils was assessed by staining of the cells with APC-Ly6G antibody (clone 1A8, BioLegend) using a BD LSRFortessa flow cytometer (BD Biosciences).
In the time course experiments, BMDNs (1 × 10^6) were stimulated with eCIRP (1 μg/mL) for 2, 4, 6, and 12 hours. […] Single-cell suspensions were then stained with APC-conjugated anti–mouse Ly6G (clone 1A8, catalog 127614, BioLegend) and PE-conjugated anti-DLL4 (clone HMD4-1, catalog 130807, BioLegend), and analyzed by flow cytometry (BD LSRFortessa, BD Biosciences) to detect DLL4^+ neutrophils (Ly6G^+DLL4^+). […] The isolated lung cells were counted using a microscope (Eclipse TS100, Nikon). […]

| Molecule | effect on ZBP1 in pulmonary endothelial cells, immunostaining [1] | frequency of DLL4^+ neutrophils (Figure 1E) ([2]; TLR4^–/– (KO) BMDNs, 1 μg/mL eCIRP, individual replicates) | eCIRP-mediated induction of DLL4^+ neutrophils ([2]; TLR4^–/– neutrophils, 1 μg/mL) |
| --- | --- | --- | --- |
| ECAGSPCHNGGTCEDGI [NDI] | reduced ZBP1 expression in pulmonary endothelial cells in sepsis |  |  |
| B1 |  | 1.63% and 1.97% and 2.11% and 0.98% and 0.25% and 1.21% | significantly abrogated in TLR4^–/– neutrophils |

From PMC12700550, “DLL4^+ neutrophils promote Notch1-mediated endothelial PANoptosis to exacerbate acute lung injury in sepsis” (The Journal of Clinical Investigation, 2025)
